Laboratory results published in US20210347908A1 (ELPISCIENCE SUZHOU BIOPHARMA, published 2021).
Where two headings read alike, the source gives them in different places. One block for each binder: values may come before it.

Assays:
[1] = molecular target: T1, 6×His tagged C57BL/6 mouse SIRPα ECD recombinant protein (mouse (C57BL/6), UniProt P97797 32-373); experiment: ELISA on coated mouse SIRPα (C57BL/6) ECD, antibody at 10, 1 and 0.1 ug/ml [right panel mSIRPα ECD (C57BL/6]
T1 construct: extracellular domain; bought; also called mSIRPα (C57BL/6); mouse SIRPα (C57BL/6) ECD
T1 sequence: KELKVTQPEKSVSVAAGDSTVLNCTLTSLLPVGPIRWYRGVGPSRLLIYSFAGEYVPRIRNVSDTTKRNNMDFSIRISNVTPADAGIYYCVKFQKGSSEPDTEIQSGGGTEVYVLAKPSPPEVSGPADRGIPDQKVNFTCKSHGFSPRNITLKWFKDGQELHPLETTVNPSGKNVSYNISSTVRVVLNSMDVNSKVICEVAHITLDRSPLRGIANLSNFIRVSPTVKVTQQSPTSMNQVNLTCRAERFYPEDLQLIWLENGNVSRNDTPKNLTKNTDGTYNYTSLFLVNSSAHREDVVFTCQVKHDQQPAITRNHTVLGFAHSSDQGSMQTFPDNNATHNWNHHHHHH

[2] = molecular target: T2, 6×His tagged human SIRPα v2 ECD recombinant protein (human); experiment: SPR (Biacore)
T2 sequence (chain, as listed by the source): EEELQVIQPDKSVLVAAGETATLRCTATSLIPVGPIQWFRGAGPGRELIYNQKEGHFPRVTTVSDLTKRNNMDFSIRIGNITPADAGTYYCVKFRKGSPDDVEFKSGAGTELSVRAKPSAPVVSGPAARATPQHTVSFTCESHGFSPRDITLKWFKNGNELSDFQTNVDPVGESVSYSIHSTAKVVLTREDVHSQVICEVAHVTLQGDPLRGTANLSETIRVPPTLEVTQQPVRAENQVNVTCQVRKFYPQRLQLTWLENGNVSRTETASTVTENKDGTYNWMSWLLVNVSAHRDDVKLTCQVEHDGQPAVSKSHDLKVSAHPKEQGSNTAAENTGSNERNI

[3] = molecular target: T1, 6×His tagged C57BL/6 mouse SIRPα ECD …; experiment: SPR (Biacore)
[4] = molecular target: T3, 6×His tagged human SIRPα v1 ECD recombinant protein (human, UniProt P78324 31-373); experiment: SPR (Biacore)
T3 construct: extracellular domain; bought; also called hSIRPα V1 (SPR antigen)
T3 sequence (P78324 other isoform, or with tags, fused parts or gaps): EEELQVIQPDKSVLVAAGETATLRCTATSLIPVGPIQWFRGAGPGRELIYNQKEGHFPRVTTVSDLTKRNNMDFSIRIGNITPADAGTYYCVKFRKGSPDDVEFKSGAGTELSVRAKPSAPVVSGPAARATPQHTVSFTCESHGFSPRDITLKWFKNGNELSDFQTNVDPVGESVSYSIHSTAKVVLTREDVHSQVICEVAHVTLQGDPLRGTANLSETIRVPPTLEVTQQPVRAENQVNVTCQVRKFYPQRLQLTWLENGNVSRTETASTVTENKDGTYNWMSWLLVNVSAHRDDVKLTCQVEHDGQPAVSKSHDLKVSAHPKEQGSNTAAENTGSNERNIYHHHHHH

[5] = molecular target: T4, Fc tagged human SIRPα v1 ECD recombinant protein (human, UniProt P78324 31-370); experiment: ELISA
T4 construct: range 1-370; cloned range M1-R370 includes the signal peptide; also called hSIRPα V1; not shown: human IgG Fc region (hFc) of the pCPC vector
T4 sequence (P78324 31-370 limits assumed): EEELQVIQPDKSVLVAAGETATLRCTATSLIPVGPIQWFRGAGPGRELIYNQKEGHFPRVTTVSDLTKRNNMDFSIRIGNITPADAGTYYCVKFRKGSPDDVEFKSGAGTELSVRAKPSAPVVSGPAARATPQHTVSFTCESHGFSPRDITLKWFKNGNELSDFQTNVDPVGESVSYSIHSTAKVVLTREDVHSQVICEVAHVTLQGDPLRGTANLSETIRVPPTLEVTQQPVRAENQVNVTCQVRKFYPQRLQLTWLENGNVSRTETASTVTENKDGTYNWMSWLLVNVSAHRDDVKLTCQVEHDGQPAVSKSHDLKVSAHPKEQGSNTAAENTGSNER

[6] = molecular target: T5, Fc tagged human SIRPγ ECD recombinant protein (human, UniProt Q9P1W8 29-360); experiment: ELISA
T5 construct: range 1-360; cloned range includes the signal peptide; also called hSIRPγ; not shown: human IgG Fc region (hFc) of the pCPC vector
T5 sequence (Q9P1W8 29-360 limits assumed, form in doubt): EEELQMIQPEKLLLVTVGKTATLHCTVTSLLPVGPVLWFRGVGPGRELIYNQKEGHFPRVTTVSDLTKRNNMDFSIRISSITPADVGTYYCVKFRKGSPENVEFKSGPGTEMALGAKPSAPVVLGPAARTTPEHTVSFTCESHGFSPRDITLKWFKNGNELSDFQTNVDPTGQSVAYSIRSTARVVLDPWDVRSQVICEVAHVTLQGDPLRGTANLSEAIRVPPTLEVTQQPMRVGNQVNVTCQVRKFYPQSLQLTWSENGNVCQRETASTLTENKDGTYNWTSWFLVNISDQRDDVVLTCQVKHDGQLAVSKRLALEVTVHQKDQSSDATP

[7] = molecular target: T6, 6×His tagged human SIRPα v8 ECD recombinant protein (human); experiment: ELISA
T6 construct: extracellular domain; bought; also called hSIRPα V8

[8] = molecular target: T7, Fc tagged human SIRPβ ECD recombinant protein (human, UniProt O00241 30-371); experiment: ELISA
T7 construct: range 1-371; cloned range includes the signal peptide; also called hSIRPβ; not shown: human IgG Fc region (hFc) of the pCPC vector
T7 sequence (O00241 30-371 limits assumed, form in doubt): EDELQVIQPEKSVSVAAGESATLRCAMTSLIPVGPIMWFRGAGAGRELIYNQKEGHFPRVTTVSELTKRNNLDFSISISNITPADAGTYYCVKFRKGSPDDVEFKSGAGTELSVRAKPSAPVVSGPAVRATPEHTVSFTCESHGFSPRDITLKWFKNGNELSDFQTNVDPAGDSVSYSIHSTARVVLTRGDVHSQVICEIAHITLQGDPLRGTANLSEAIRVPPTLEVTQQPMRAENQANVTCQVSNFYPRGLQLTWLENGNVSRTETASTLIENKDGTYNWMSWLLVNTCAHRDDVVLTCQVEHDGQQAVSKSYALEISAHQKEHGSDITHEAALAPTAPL

[9] = molecular target: T8, Fc tagged human SIRPα v2 ECD recombinant protein (human); experiment: ELISA
T8 construct: range 1-369; cloned range M1-R369 includes the signal peptide; also called hSIRPα V2

[10] = molecular target: T2, 6×His tagged human SIRPα v2 ECD …; experiment: SPR (Biacore); remark: listed apart in the source
Description: Anti-SIRPα chimeric antibodies were characterized for binding affinity against human SIRPα v1, human SIRPα v2 and C57BL/6 mouse SIRPα using Biacore (GE). Briefly the antibodies to be tested were captured to CM5 chip (GE) using Human Antibody Capture Kit (GE). The antigens of 6×His tagged human SIRPα v1, human SIRPα v2 and C57BL/6 mouse SIRPα ECD recombinant proteins were serially diluted for multiple doses and injected at 30 μl/min for 180 s. Buffer flow was maintained for dissociation of 400 s. 3 M MgCl₂ was used for chip regeneration. The association and dissociation curves were fit with 1:1 binding model, and the Ka/Kd/KD values for each antibody were calculated.
(§1) hu035.01, the first version of humanized 035, was characterized by FACS assay using CHOK1-human SIRPα v1-1B4 cells, ELISA assay using Fc tagged human SIRPα v2 ECD recombinant protein and SPR analysis using the antigen of 6×His tagged human SIRPα v2 ECD recombinant protein (refer to methods described in Example 3.4, Example 3.3 and Example 4.3). […] In particular, hu035.01 cannot be detected to bind with C57BL/6 mouse SIRPα ECD in ELISA assay possibly due to reduced binding activity (FIG. 5B).

[11] = molecular target: T9, full length human SIRPα v1 stably expressed on CHOK1 cells (human, UniProt P78324 31-504); experiment: FACS on CHOK1-human SIRPα v1-1B4 cells
T9 construct: whole, on cells; also called CHOK1-human SIRPα v1-1B4 cells; CHOK1-human SIRPα v1
T9 sequence (P78324 31-504): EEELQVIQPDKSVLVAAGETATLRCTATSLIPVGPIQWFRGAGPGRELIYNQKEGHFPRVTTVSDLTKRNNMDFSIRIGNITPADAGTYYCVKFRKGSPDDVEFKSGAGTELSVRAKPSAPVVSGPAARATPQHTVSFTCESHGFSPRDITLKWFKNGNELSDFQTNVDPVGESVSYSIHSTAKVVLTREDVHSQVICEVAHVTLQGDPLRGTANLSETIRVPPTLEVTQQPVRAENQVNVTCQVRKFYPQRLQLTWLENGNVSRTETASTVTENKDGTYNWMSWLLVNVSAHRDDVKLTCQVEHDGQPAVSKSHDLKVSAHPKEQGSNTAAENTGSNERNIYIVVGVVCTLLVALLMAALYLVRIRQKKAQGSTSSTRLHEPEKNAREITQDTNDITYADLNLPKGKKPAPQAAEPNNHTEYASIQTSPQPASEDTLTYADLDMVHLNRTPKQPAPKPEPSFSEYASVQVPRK
Description: Species cross reactivity of the purified hybridoma antibodies against human, cyno and mouse SIRPα was determined by FACS assay using CHOK1-human SIRPα v1-1B4 cells, CHOK1-cyno SIRPα-2A2 cells, and CHOK1-C57BL/6 mouse SIRPα-2.22 cells, which stably expressing SIRPα protein. Briefly the antibodies were incubated with 2×10⁵ target cells at 4° C. for 1 hour. After washing, fluorescence labeled anti-mouse or anti-human IgG 2nd antibody (Life Technologies) was added and incubated at 4° C. for 1 hour. Geometric median fluorescence intensity was detected and EC₅₀ was calculated. In particular, it is noted, in contrast to the other antibodies tested in the same experiment, 060 cannot bind with cyno SIRPα and 035 has cross reactivity against C57BL/6 mouse SIRPα.
as §1

binding result [1]: no binding (tested: 10 ug/ml)
B1: chimeric antibody 032c (antibody, V domains shown)
VH: EVRLEESGGGLVQPGGSMKLSCVVSGFTFRNYWMNWVRQSPERGLEWIAEITLKSNTYATHYAESVKGRFAISRDDSKSSFYLQMNDLRPEDTGIYYCTTFTKVVADWHLDVWGAGTTVTVSS
VL: DVLMTQTPLSLPVNLGDQASISCRSSQNIVHSNGNTYLEWYLQKPGQSPKLLIYKVSNRFSGVPDRFSGSGSGTDFTLRISRVEAEDLGVYYCFQGSHVPFTFGSGTKLEIK

Kd [2]: 1.39 nM | Kd [3]: 5270 nM | Kd [4]: 1.89 nM | EC50 [5]: 0.16 nM | EC50 [6]: 16.4 nM | EC50 [7]: 0.2 nM | EC50 [8]: 0.13 nM | EC50 [9]: 0.13 nM | Kd [10]: 0.61 nM | EC50 (read off the curve) [11]: ~0.2 µg/mL
B2: chimeric antibody 035c (antibody, V domains shown)
VH: QIQLVQSGPELRKPGETVKISCKASGYSFTNYAMNWVKQAPGKVLKWMGFINTYTGEPTYADDFKGRFAFSLETSASTAYLQINNLKNEDTATYFCTRTRGYYDFDGGAFDYWGQGTSLTVSS
VL: DIVMTQSQKFMSTSIGDRVSVTCKASQNVGTHLAWYQQKPGQSPKALIFSASYRYIGVPDRFTGSGSGTDFTLTITNVQSEDLAEYFCQQYNTYPLTFGAGTKLELK
